Experimental data published in the supplement of paper PMC7125110.
± gives the standard error. For some assays here: Variants at the floor of the assay were thinned out.

B1: glmS ribozyme (parent)
chain: AUAAAAGCGCCAGAACUACAGAAAUGUAGUUGACGAGGAGGAGGUUUAUCGAAUUUUCGGCGGAUGCCUCCAAA

What was measured:
Details in all cases: with glucosamine-6-phosphate
glucosamine-6-phosphate [1] = variants of: B1; experiment: kcat; higher = faster cleavage; RNA array
Method in brief: (§1)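 Sequenced MiSeq chips were the platform: E. coli RNA polymerase transcribed barcoded ribozyme variants on them in situ, and a hybridised Cy3 probe tracked these at 37 °C. After glucosamine-6-phosphate (40 μM to 10 mM) in HEPES/KCl/Mg(OAc)2 buffer was flowed in, tiles were imaged over ~14 h. Signals normalised to baseline and to non-cleaving reference variants were reduced to per-tile medians and fit to one- or two-exponential decays to obtain kobs. kcat and KM were derived through weighted Michaelis–Menten fits across concentrations.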

glucosamine-6-phosphate [2] = variants of: B1; experiment: KM; higher = weaker cofactor use; RNA array
Method in brief: as §1

glucosamine-6-phosphate [3] = variants of: B1; experiment: self-cleavage kobs at 40 uM GlcN6P; higher = faster cleavage; RNA array
Method in brief: as §1

glucosamine-6-phosphate [4] = variants of: B1; experiment: self-cleavage kobs at 160 uM GlcN6P; higher = faster cleavage; RNA array
Method in brief: as §1

glucosamine-6-phosphate [5] = variants of: B1; experiment: self-cleavage kobs at 640 uM GlcN6P; higher = faster cleavage; RNA array
Method in brief: as §1

glucosamine-6-phosphate [6] = variants of: B1; experiment: self-cleavage kobs at 2500 uM GlcN6P; higher = faster cleavage; RNA array
Method in brief: as §1

glucosamine-6-phosphate [7] = variants of: B1; experiment: self-cleavage kobs at 10000 uM GlcN6P; higher = faster cleavage; RNA array
Method in brief: as §1

| Variant | kcat (glucosamine-6-phosphate [1]) | KM (glucosamine-6-phosphate [2]) | self-cleavage kobs at 40 uM GlcN6P (glucosamine-6-phosphate [3]) | self-cleavage kobs at 160 uM GlcN6P (glucosamine-6-phosphate [4]) | self-cleavage kobs at 640 uM GlcN6P (glucosamine-6-phosphate [5]) | self-cleavage kobs at 2500 uM GlcN6P (glucosamine-6-phosphate [6]) | self-cleavage kobs at 10000 uM GlcN6P (glucosamine-6-phosphate [7]) |
| --- | --- | --- | --- | --- | --- | --- | --- |
| U31C C50U | < 1e-05 s⁻¹ |  |  |  |  |  |  |
| U31C C67U | 0.00122 ± 0.00016 s⁻¹ | 1290 ± 260 µM | 4.68e-05 ± 7.4e-06 s⁻¹ | 0.000125 ± 2e-05 s⁻¹ | 0.000375 ± 4.8e-05 s⁻¹ | 0.000785 ± 0.00011 s⁻¹ | 0.00115 ± 0.00016 s⁻¹ |
| U31C C67G | 4.05e-05 ± 1e-06 s⁻¹ | 467 ± 76 µM | < 1e-05 s⁻¹ |  | 2.33e-05 ± 8.8e-06 s⁻¹ | 3.49e-05 ± 6.3e-06 s⁻¹ | 3.83e-05 ± 5.5e-06 s⁻¹ |
| U31A G44A | 0.00023 ± 5.7e-05 s⁻¹ | 4780 ± 2400 µM |  |  |  | 9.2e-05 ± 1.5e-05 s⁻¹ | 0.000151 ± 2.1e-05 s⁻¹ |
| U31A C68U | 0.00143 ± 0.00043 s⁻¹ | 2740 ± 1200 µM |  | 6.73e-05 ± 1.4e-05 s⁻¹ | 0.000477 ± 9.5e-05 s⁻¹ | 0.000776 ± 0.00018 s⁻¹ | 0.00105 ± 0.00019 s⁻¹ |
| U31A C68A | 2.86e-05 ± 9.3e-06 s⁻¹ |  | < 1e-05 s⁻¹ |  |  | 4.06e-05 ± 1.6e-05 s⁻¹ |  |
| U30C U56G | 0.000308 ± 7.9e-05 s⁻¹ |  |  |  | 8.86e-05 ± 1.3e-05 s⁻¹ | 0.000135 ± 1.8e-05 s⁻¹ | 0.000296 ± 3.5e-05 s⁻¹ |
| G29U U54A C67G | 8.75e-05 ± 2.6e-05 s⁻¹ |  |  | 5.68e-05 ± 1.4e-05 s⁻¹ | 8.37e-05 ± 1.3e-05 s⁻¹ | 0.000134 ± 2.5e-05 s⁻¹ | 5.17e-05 ± 2e-05 s⁻¹ |
| G29U U49G | 0.000125 ± 2e-05 s⁻¹ | 5270 ± 1900 µM |  |  |  | 3.79e-05 ± 1.7e-05 s⁻¹ | 8.25e-05 ± 1.9e-05 s⁻¹ |
| G29U U49A | < 1e-05 s⁻¹ |  | < 1e-05 s⁻¹ | < 1e-05 s⁻¹ |  |  | < 1e-05 s⁻¹ |
| U30G A48G | < 1e-05 s⁻¹ |  | < 1e-05 s⁻¹ | < 1e-05 s⁻¹ |  |  |  |
| U30C A52G | 1.33e-05 ± 2.9e-06 s⁻¹ |  |  |  |  |  |  |
| G29C G40C | 9.96e-05 ± 4.4e-06 s⁻¹ | 1020 ± 150 µM |  |  | 3.65e-05 ± 1.5e-05 s⁻¹ | 7.4e-05 ± 1.6e-05 s⁻¹ | 8.84e-05 ± 1.8e-05 s⁻¹ |
| U31A A42G U47A | 0.00933 ± 0.0047 s⁻¹ |  | 0.000345 ± 9.2e-05 s⁻¹ |  | 0.00346 ± 0.001 s⁻¹ |  | 0.00844 ± 0.0039 s⁻¹ |
| U30C A39C | 0.000139 ± 1.1e-05 s⁻¹ | 4210 ± 820 µM |  |  |  | 5.33e-05 ± 1e-05 s⁻¹ | 9.75e-05 ± 9.4e-06 s⁻¹ |
| G29U U31A | 0.0048 ± 0.0017 s⁻¹ | 3260 ± 1600 µM | 9.58e-05 ± 1.6e-05 s⁻¹ | 0.000159 ± 3.6e-05 s⁻¹ | 0.000947 ± 0.00018 s⁻¹ | 0.0019 ± 0.00044 s⁻¹ | 0.00369 ± 0.00052 s⁻¹ |
| U30A C71A | 0.00089 ± 0.00018 s⁻¹ | 603 ± 230 µM | 5.08e-05 ± 1.3e-05 s⁻¹ |  | 0.000632 ± 0.0002 s⁻¹ | 0.000946 ± 0.00022 s⁻¹ | 0.00072 ± 0.00016 s⁻¹ |
